T1: sCD32B-Ig (UniProt P31994 43-217)
T1 construct: extracellular domain; also called CD32B-Fc; CD32-Fc; not shown: Ig/Fc part not described
T1 sequence (looked up): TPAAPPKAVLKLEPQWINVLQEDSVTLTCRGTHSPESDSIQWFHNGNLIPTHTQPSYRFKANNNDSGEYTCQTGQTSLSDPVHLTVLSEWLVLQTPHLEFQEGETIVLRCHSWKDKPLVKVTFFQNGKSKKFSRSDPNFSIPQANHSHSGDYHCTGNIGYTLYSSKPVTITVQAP

T2: soluble CD32A (sCD32A) (UniProt P12318 34-217, limits assumed)
T2 construct: extracellular domain; also called sCD32A (negative control)
T2 sequence (looked up): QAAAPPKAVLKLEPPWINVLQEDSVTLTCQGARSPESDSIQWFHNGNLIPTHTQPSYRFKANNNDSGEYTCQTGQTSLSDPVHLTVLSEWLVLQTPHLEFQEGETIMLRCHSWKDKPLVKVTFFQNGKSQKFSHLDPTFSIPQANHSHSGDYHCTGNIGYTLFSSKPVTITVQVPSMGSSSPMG

T3: soluble CD32B (sCD32B) (human, UniProt P31994 43-217)
T3 construct: extracellular domain; also called FcγRIIB; soluble CD32B ectodomain
T3 sequence (looked up): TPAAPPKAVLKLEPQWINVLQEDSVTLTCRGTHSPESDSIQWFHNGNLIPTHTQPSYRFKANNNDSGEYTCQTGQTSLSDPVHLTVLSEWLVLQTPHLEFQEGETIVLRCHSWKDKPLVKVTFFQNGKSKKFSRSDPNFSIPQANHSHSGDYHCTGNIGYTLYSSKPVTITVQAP


What was measured:
[1] = target: T4, human serum albumin (HSA) (human, UniProt P02768 25-609); test: HSA binding class
T4 construct: also called HRP-human albumin

[2] = target: T1, sCD32B-Ig; test: sandwich ELISA, sCD32B-Ig coat, sCD16A probe
[3] = target: T2, soluble CD32A (sCD32A); test: SPR (BIAcore): sCD32A (negative control) immobilised, diabody injected for 60 s
[4] = target: T3, soluble CD32B (sCD32B); test: sandwich ELISA: sCD32B coated (sCD32B-Ig, 2 ug/ml), diabody titrated, labelled sCD16A as probe

Binder | HSA binding [1] | binding result [2] | binding result [3] | binding result [4]
LAEAKVLANRELDKYGVSDYYKNGANNAKTAEGVKALIDEILAALP (other, also called 64G/65A/71A) [ABD3 L64G/I65A/V71A] | < 0.1 | – | – | –
h3G8 covalent monospecific diabody (CMD) (other, covalent homodimer: two copies of this chain, disulfide-linked through the C-terminal LGGC cysteine, covalent homodimer; also called h3G8 CMD; h3G8 diabody) DIVMTQSPDSLAVSLGERATINCKASQSVDFDGDSFMNWYQQKPGQPPKLLIYTTSNLESGVPDRFSGSGSGTDFTLTISSLQAEDVAVYYCQQSNEDPYTFGQGTKLEIKGGGSGGGGQVTLRESGPALVKPTQTLTLTCTFSGFSLSTSGMGVGWIRQPPGKALEWLAHIWWDDDKRYNPALKSRLTISKDTSKNQVVLTMTNMDPVDTATYYCAQINPAWFAYWGQGTLVTVSSLGGC | – | no binding (tested: 0.5 µg/ml to 0.001 µg/ml) | no binding (tested: 100 nM) | no binding (tested: 0.5 ug/ml)

From patent publication US20150175697A1 (MacroGenics, published 2015)
